{
  "source": "paper PMC8684745",
  "about": "(Molecular Biology of the Cell, 2021)",
  "key": {"[1]": {"molecular_target": "Drp1 (full-length human Drp1 isoform 3, Drp1 000) (human) (UniProt O00429)", "assay": "TIRF microscopy"}, "[2]": {"molecular_target": "Drp1/actin bundles (actin filaments prebundled by Cy5-Drp1) (human | rabbit) (UniProt O15027)", "sequence (O15027 whole entry)": "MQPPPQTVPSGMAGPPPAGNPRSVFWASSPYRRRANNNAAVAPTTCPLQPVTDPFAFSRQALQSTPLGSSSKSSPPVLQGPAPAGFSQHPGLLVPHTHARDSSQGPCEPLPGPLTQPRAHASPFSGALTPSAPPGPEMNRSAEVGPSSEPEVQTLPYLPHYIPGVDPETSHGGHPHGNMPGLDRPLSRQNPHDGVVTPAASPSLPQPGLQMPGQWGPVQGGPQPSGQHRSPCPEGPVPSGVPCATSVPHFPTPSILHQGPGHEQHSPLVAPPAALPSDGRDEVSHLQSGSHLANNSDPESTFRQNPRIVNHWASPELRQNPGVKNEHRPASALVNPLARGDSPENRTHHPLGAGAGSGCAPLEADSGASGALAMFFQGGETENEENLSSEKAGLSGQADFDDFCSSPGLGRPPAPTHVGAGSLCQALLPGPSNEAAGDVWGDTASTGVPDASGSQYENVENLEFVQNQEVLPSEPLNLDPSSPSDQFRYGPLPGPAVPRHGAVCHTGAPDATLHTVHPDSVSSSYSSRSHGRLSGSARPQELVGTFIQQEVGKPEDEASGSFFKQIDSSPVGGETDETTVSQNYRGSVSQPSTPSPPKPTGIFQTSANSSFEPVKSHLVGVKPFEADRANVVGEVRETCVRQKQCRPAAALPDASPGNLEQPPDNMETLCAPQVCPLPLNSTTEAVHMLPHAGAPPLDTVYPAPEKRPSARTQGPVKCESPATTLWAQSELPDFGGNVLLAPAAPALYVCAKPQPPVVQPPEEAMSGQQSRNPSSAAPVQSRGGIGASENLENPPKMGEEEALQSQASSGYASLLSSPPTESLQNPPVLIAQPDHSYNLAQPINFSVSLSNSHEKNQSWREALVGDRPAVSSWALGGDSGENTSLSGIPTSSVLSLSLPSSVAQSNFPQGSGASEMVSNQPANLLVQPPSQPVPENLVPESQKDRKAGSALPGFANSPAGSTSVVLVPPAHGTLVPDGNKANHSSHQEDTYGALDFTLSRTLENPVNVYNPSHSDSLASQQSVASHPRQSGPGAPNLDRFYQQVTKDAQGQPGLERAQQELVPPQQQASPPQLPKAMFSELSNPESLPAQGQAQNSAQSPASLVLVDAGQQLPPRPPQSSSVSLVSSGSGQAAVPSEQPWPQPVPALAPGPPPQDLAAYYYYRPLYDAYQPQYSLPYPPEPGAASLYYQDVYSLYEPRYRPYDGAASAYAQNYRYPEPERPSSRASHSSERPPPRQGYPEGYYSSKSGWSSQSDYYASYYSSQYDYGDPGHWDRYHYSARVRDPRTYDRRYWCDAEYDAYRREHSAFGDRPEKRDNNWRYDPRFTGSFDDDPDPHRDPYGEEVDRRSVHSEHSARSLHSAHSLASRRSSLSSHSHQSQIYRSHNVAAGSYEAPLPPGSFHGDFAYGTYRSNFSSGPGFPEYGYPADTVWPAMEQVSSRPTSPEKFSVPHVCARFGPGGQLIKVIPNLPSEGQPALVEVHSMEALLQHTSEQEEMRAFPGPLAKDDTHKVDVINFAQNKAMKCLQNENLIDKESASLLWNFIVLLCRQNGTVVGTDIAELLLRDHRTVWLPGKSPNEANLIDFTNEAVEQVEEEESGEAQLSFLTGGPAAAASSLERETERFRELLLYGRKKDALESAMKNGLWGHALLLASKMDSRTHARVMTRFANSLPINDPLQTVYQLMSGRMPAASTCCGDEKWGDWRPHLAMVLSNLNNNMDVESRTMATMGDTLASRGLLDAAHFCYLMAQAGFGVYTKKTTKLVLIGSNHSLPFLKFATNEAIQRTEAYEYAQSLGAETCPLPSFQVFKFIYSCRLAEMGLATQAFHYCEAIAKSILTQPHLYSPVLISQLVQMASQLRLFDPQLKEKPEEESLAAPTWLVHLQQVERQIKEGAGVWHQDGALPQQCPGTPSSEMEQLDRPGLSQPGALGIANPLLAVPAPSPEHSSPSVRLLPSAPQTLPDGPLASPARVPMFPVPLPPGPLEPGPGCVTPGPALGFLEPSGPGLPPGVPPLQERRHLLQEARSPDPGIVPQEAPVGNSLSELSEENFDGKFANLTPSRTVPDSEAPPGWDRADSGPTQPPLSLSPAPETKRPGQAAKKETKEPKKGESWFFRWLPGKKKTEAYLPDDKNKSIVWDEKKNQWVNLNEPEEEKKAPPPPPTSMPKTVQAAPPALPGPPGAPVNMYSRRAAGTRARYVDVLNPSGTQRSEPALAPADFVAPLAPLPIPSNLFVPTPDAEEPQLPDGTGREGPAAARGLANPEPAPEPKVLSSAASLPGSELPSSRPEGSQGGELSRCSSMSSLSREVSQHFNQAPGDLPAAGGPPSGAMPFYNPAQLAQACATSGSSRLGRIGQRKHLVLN", "assay": "TIRF microscopy"}, "AUC": {"molecular_target": "the molecule itself", "assay": "AUC"}},
  "data": [
    {"molecule": "Mff-L2P (Mff-∆TM with L179P and L186P) (from UniProt Q9GZY8-4 1-218) (domain or fragment)", "values": [
      {"measurement": "fold less binding than Mff-∆TM", "setting": "[1]", "result": 5, "unit": "fold"}
    ]},
    {"molecule": "Mff-∆TM (cytoplasmic region of human Mff isoform 4, C-terminally 6His-tagged) (from UniProt Q9GZY8-4 1-218) (domain or fragment)", "values": [
      {"measurement": "percent of Mff-∆TM remaining after wash", "setting": "[2]", "result": 50, "unit": "%"}
    ]},
    {"molecule": "GFP-CC (CC domain of human Mff isoform 4, amino acids 149–197, on the C-terminus of GFP) (domain or fragment) SGGGGISNIDTTIEGTSDDLTVVDAASLRRQIIKLNRRLQLLEEENKERAKREGGGS", "values": [
      {"measurement": "stoichiometry N", "setting": "AUC", "result": 3}
    ]}
  ]
}
